Assay results as given in patent US6949357.

Molecular target: rabbit polyclonal antiserum against the BL172 synthetic peptide of SEQ ID NO: 20
Assay: competition Western blot; antiserum pre-incubated overnight at 4 C with varying concentrations of peptide immunogen

Q: TQTCGNCTFRVCFEQCCPWTFMVKLINQNCD [BL172 synthetic peptide of SEQ ID NO: 20] was tested. Which concentration of peptide at which antibody binding to the band was inhibited did it give?
A: 2.9 µM
